Consider 44 variants from the Human Domainome abundance scans (Beltran et al. 2025).

± gives the uncertainty stated by the source.

B1: Proto-oncogene vav, residues 782 to 842; numbered along this chain, P15498 (parent)
chain: KYFGTAKARYDFCARDRSELSLKEGDIIKILNKKGQQGWWRGEIYGRVGWFPANYVEEDYS

The variants in this data set derive from B1. Description: abundance fitness (aPCA) (normalised: wild type 0, dead -1); higher = more abundant; growth selection in yeast, the domain comes from the species named. As to conditions: Homo sapiens.
KYFGTAKARYDFCARDRSELSLKEGDIIKILNKKGQQGWWRGEIYGRVGWFPANYVDEDYS: the abundance fitness was -0.172 ± 0.2.

In the case of KYFGTAKARYDFCARDRSELSLKEGDIIKILNKKGQQGWWRAEIYGRVGWFPANYVEEDYS, the abundance fitness is -0.523 ± 0.11.

For the variant KYFGTAKARYDFCARDRSELSLKEGDIIKILNKKGQQGWWRGEIYGRVGWFPANTVEEDYS, the abundance fitness is -0.206 ± 0.097.

Regarding KYFGTAKARYDFCARDRSELSLKEGDIIKILNKKGQQGWWRGEIYGRVGWFPANDVEEDYS, the abundance fitness is -0.736 ± 0.19.

As to KYFGTAKARYDFCARHRSELSLKEGDIIKILNKKGQQGWWRGEIYGRVGWFPANYVEEDYS, the abundance fitness was 0.022 ± 0.11.

As for KYFGTAKARYDFCARFRSELSLKEGDIIKILNKKGQQGWWRGEIYGRVGWFPANYVEEDYS, the abundance fitness was -0.618 ± 0.17.

With KYFGTAKARYDFCARRRSELSLKEGDIIKILNKKGQQGWWRGEIYGRVGWFPANYVEEDYS, the abundance fitness is -0.112 ± 0.064.

Take KYFGTAKCRYDFCARDRSELSLKEGDIIKILNKKGQQGWWRGEIYGRVGWFPANYVEEDYS: the abundance fitness was -0.582 ± 0.2.

Regarding KYFGTAKQRYDFCARDRSELSLKEGDIIKILNKKGQQGWWRGEIYGRVGWFPANYVEEDYS, the abundance fitness was -0.956 ± 0.35.

KYFGTAKRRYDFCARDRSELSLKEGDIIKILNKKGQQGWWRGEIYGRVGWFPANYVEEDYS: the abundance fitness was -0.903 ± 0.12.

For the variant KYFGTAKARYDFCARDRSELSLKEGDIIKIPNKKGQQGWWRGEIYGRVGWFPANYVEEDYS, the abundance fitness is -0.988 ± 0.42.

Take KYFGTAKARYDFCARDRSELSLKEGRIIKILNKKGQQGWWRGEIYGRVGWFPANYVEEDYS: the abundance fitness was -0.996 ± 0.19.

Turning to KYFGTAKARYDFCARDRSELSLKEGIIIKILNKKGQQGWWRGEIYGRVGWFPANYVEEDYS, the abundance fitness was -0.663 ± 0.29.

Take KYFGTAKARYDFCARDRSELSLKEGCIIKILNKKGQQGWWRGEIYGRVGWFPANYVEEDYS: the abundance fitness is -0.737 ± 0.26.

As to KYFGTAKARYDFCARDRSELSLKEGDIIKILNKKGQQGWWRGEIYGRVGWFFANYVEEDYS, the abundance fitness was -0.957 ± 0.43.

For the variant KYFGTAYARYDFCARDRSELSLKEGDIIKILNKKGQQGWWRGEIYGRVGWFPANYVEEDYS, the abundance fitness is -0.133 ± 0.16.

As to KYFGTAKARYDFCARDRSELSLKEGDIIKILNKKGQQAWWRGEIYGRVGWFPANYVEEDYS, the abundance fitness was -0.619 ± 0.12.

KYFGTAKARYDFCARDRSELSLKEGDIIKILNKKGQQGWWRGEIYIRVGWFPANYVEEDYS: the abundance fitness was -0.766 ± 0.16.

On to KYFGTAKARYDFCARDRSELSLKEGDIIKILNKKGQQGWWRGEIYGRVGWFPAFYVEEDYS, for which the abundance fitness was -0.406 ± 0.12.

On to KYFGTAKARYDFCARDRSELSLKEGDIIKILNKKGQQGWWRGEIYGRVGWFPAAYVEEDYS, for which the abundance fitness worked out at 0.051 ± 0.074.

Take KYFGTAKARYDFCARDRSELSLKEGDIIKILNKKGQQGTWRGEIYGRVGWFPANYVEEDYS: the abundance fitness is -0.385 ± 0.078.

Regarding KYFGTAKARYDFCARDRSELSLKEGDIIKILNKKGQQGPWRGEIYGRVGWFPANYVEEDYS, the abundance fitness was -0.807 ± 0.12.

With KYFGTAKARYDFCARDVSELSLKEGDIIKILNKKGQQGWWRGEIYGRVGWFPANYVEEDYS, the abundance fitness was -0.014 ± 0.058.

Regarding KYFGTAKARYDFCARDGSELSLKEGDIIKILNKKGQQGWWRGEIYGRVGWFPANYVEEDYS, the abundance fitness is -0.012 ± 0.09.

In the case of KYFGTAKARYDFCARDNSELSLKEGDIIKILNKKGQQGWWRGEIYGRVGWFPANYVEEDYS, the abundance fitness stood at 0.061 ± 0.16.

For the variant KYFGTAKARYDFCARDPSELSLKEGDIIKILNKKGQQGWWRGEIYGRVGWFPANYVEEDYS, the abundance fitness was 0.031 ± 0.11.

In the case of KYNGTAKARYDFCARDRSELSLKEGDIIKILNKKGQQGWWRGEIYGRVGWFPANYVEEDYS, the abundance fitness was -0.173 ± 0.097.

KYVGTAKARYDFCARDRSELSLKEGDIIKILNKKGQQGWWRGEIYGRVGWFPANYVEEDYS: the abundance fitness was -0.029 ± 0.068.

For KYFGTAKARYDFCARDRSELSLKEGDIIKILNKKGQQGWWRGEIYGRVGWFPHNYVEEDYS, the abundance fitness was -0.011 ± 0.18.

On to KYFGTAKARYDFCARDRSELSLKEGDIIKILNKKGQQGWWRGEIYGRVGNFPANYVEEDYS, for which the abundance fitness is -0.329 ± 0.14.

As to KYFGTAKARYDFCARDRSELSLKEGDIIKILNKKGQQGWWRGEIYGRVGWFPANYVEVDYS, the abundance fitness is -0.117 ± 0.089.

For the variant KYFGTAKARYDFCARDRSELSLKEGDIVKILNKKGQQGWWRGEIYGRVGWFPANYVEEDYS, the abundance fitness worked out at 0.039 ± 0.06.

For KYFGTAKARYDFCARDRSELSLKEGDISKILNKKGQQGWWRGEIYGRVGWFPANYVEEDYS, the abundance fitness is -0.792 ± 0.29.

In the case of KYFGTAKARYDFCARDRSELSLKEGDIIKILNKKGQQGWWRGWIYGRVGWFPANYVEEDYS, the abundance fitness is -0.782 ± 0.16.

For KYFGTAKARYDFCARDRSELSLKEGDIIKILNKKMQQGWWRGEIYGRVGWFPANYVEEDYS, the abundance fitness is -0.324 ± 0.15.

Consider KYFGTAKARYDFCARDRSELSLKEGDIIKILNKKCQQGWWRGEIYGRVGWFPANYVEEDYS, for which the abundance fitness is -0.165 ± 0.093.

For KYFGTAKARYDFCARDRSELSLKEGDIIKILNKKDQQGWWRGEIYGRVGWFPANYVEEDYS, the abundance fitness is -0.155 ± 0.08.

Take KYFGTAKARYDFCARDRSELSLKEGDIIKILNKKGQEGWWRGEIYGRVGWFPANYVEEDYS: the abundance fitness was 0.033 ± 0.12.

KYFGTAKARYDFCARDRSELSLKEGDIIKILNKKGQQGWVRGEIYGRVGWFPANYVEEDYS: the abundance fitness is -0.648 ± 0.083.

For KYFGTAKARYDFCARDRSELSLKEGDIIKILNKKGQQGWWRGEIYGRVGWIPANYVEEDYS, the abundance fitness was -0.691 ± 0.25.

KYFGTAKARYDFCARDRSELSLKEGDIIKILNKKGQQGWWRGEIYGRVGWTPANYVEEDYS: the abundance fitness was -0.799 ± 0.15.

Consider KYFGTAKARYDFCARDRSELSLKEGDIIKILNKKGQQGWWRGEIHGRVGWFPANYVEEDYS, for which the abundance fitness stood at 0.135 ± 0.15.

With KYFGTAKARYDFCARDRSELSLKEGDIIKILNKKGQQGWWTGEIYGRVGWFPANYVEEDYS, the abundance fitness is -0.633 ± 0.13.

In the case of KYFGTAKARYDFCARDRSELSLKEGDIIKILNKKGQQGWWAGEIYGRVGWFPANYVEEDYS, the abundance fitness is -0.364 ± 0.07.
